Laboratory results: the supplement of paper PMC10065799, “High-throughput profiling of sequence recognition by tyrosine kinases and SH2 domains using bacterial peptide display” (eLife, 2023)

molecular target: Hck (UniProt P08631); experiment: phosphorylation enrichment, bacterial display (enrichment ratio); higher = better substrate or ligand; peptides without Tyr show the background
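Further: 11-residue human phosphosite peptides and single-mutation variants displayed on the E. coli surface, counted by deep sequencing, each peptide's frequency after selection divided by its frequency in the unselected input library; frequency after pTyr selection over input frequency; kinase dosed for 20-30% of maximal phosphorylation in three min.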

Chain of Hck (P08631 whole entry, looked up): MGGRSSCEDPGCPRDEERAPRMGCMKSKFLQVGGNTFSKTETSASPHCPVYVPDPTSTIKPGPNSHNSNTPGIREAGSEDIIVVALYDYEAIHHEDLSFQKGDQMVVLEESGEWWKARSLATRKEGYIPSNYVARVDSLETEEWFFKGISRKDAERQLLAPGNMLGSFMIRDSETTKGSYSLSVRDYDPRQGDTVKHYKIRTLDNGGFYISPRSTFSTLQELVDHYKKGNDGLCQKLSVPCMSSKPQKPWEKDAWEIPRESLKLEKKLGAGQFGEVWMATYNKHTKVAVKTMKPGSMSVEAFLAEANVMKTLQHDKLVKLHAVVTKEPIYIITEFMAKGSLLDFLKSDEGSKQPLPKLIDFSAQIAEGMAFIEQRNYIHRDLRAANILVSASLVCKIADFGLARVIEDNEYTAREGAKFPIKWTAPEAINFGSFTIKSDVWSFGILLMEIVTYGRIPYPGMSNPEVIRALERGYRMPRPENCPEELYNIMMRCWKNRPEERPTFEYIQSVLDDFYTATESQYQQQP

Going from KVGNEYITKGQ [MYH7_Y410_V411I] to GFQPDYGQPAG [SYP_Y278_YF], the phosphorylation enrichment rises from 0.399 to 0.728.

First: NYYDTYIKTCL [IQGAP2_Y1445]
Second: GFSDPYVKASL [SYT3_Y470]
The phosphorylation enrichment of the first is higher: 2.38 for the first, 0.38 for the second.

Compared with KLGDVYVNVAF [PGK1_Y161_D164V], HQNGMYGLHQD [SGSH_Y89] is lower in phosphorylation enrichment: 0.706 for the first, 0.564 for the second.

First: TSSGGYRRTPS [ABI1_Y333]
Second: EIVYVYVKKRS [DNAI2_Y7]
The phosphorylation enrichment of the first is lower: 0.409 for the first, 0.538 for the second.

Going from GMSQAYSSSQR [DES_Y5] to EMFNPYYGLFE [NEDD4L_Y679], the phosphorylation enrichment rises from 0.325 to 7.91.

First: RRLEPYGENFN [APOA4_Y310_V307L]
Second: IVRSLYEDVED [VHL_Y185_L188V]
The phosphorylation enrichment of the first is lower: 0.25 for the first, 0.526 for the second.

Compared with DLRGIYQKLVI, GEKKAYVRLAP [RPL23A_Y137] is lower in phosphorylation enrichment: 6.68 for the first, 0.337 for the second.

First: IPGMEYLVSII [TNC_Y1775_V1773M]
Second: RAYSWYQHQRA [NDST1_Y714]
The phosphorylation enrichment of the first is lower: 0.522 for the first, 0.582 for the second.

First: NYCPGYNNFYN [USH2A_Y467_R464C]
Second: IVLRSYPASGH [NID2_Y449]
The phosphorylation enrichment of the first is higher: 0.613 for the first, 0.415 for the second.

First: RALCHYYKLNI [ETV6_Y401_R399C]
Second: FAFQLYDLDRD [CHP2_Y123_YF]
The phosphorylation enrichment of the first is higher: 1.59 for the first, 1.03 for the second.

First: MPPHIYAITDT [MYH9_Y151]
Second: LENSTYQYIRV [CRB1_Y760]
The phosphorylation enrichment of the first is lower: 1.22 for the first, 10.9 for the second.

Going from ADFFDYGRGLS [KHDRBS3_Y304_H306R_YF] to RRMLQYLTVND [PPFIBP2_Y663], the phosphorylation enrichment rises from 0.421 to 0.686.

First: DDFNLYINVKL [MTHFD1_Y52_S49F]
Second: NVADHYGVYKP [ATP6V0D2_Y271]
The phosphorylation enrichment of the first is lower: 0.558 for the first, 3.71 for the second.

Compared with KWHREYNFKYV [RICTOR_Y835_S837F], SQETYYRVSNM [ABCD1_Y181_Q178E] is higher in phosphorylation enrichment: 0.397 for the first, 3.97 for the second.

For GEVKAYGAGLL [TH_Y419], the phosphorylation enrichment was 0.404.

molecular target: Jak2 (UniProt O60674); experiment: as above
Sequence (O60674 whole entry, looked up): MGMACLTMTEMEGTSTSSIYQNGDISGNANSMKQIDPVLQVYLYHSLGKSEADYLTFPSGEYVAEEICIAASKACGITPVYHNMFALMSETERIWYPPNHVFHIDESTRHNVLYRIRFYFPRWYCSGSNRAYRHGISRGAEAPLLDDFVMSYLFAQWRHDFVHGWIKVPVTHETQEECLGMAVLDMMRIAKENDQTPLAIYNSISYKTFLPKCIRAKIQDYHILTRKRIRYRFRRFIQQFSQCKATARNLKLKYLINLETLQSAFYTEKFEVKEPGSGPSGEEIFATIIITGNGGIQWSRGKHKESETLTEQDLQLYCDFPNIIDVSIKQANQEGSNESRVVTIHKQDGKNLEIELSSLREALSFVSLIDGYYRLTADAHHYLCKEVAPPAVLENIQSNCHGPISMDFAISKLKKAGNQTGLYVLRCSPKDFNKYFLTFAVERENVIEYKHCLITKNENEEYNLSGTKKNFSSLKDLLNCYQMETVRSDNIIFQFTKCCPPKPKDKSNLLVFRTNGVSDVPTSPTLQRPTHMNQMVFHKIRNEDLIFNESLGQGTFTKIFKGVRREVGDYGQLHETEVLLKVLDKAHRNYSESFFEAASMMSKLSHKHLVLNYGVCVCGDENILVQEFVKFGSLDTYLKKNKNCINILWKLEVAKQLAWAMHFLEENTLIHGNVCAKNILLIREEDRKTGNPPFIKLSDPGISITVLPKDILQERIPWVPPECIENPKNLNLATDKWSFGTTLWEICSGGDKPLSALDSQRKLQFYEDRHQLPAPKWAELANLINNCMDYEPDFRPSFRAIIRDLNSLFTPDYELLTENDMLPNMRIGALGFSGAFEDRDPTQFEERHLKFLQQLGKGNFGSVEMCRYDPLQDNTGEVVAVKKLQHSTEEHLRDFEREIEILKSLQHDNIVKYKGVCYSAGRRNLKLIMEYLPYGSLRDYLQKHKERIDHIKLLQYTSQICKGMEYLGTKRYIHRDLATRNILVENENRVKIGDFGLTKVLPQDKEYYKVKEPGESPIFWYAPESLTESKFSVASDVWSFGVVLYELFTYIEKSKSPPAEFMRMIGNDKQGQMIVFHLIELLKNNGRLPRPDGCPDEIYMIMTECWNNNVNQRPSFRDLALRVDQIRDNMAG

Compared with KVGNEYITKGQ [MYH7_Y410_V411I], GFQPDYGQPAG [SYP_Y278_YF] is lower in phosphorylation enrichment: 0.561 for the first, 0.554 for the second.

Compared with NYYDTYIKTCL [IQGAP2_Y1445], GFSDPYVKASL [SYT3_Y470] is lower in phosphorylation enrichment: 1.5 for the first, 0.646 for the second.

First: KLGDVYVNVAF [PGK1_Y161_D164V]
Second: HQNGMYGLHQD [SGSH_Y89]
The phosphorylation enrichment of the first is higher: 0.965 for the first, 0.726 for the second.

Going from TSSGGYRRTPS [ABI1_Y333] to EIVYVYVKKRS [DNAI2_Y7], the phosphorylation enrichment rises from 0.473 to 1.01.

Compared with GMSQAYSSSQR [DES_Y5], EMFNPYYGLFE [NEDD4L_Y679] is higher in phosphorylation enrichment: 0.477 for the first, 6.66 for the second.

First: RRLEPYGENFN [APOA4_Y310_V307L]
Second: IVRSLYEDVED [VHL_Y185_L188V]
The phosphorylation enrichment of the first is lower: 0.681 for the first, 1.21 for the second.

Compared with DLRGIYQKLVI, GEKKAYVRLAP [RPL23A_Y137] is lower in phosphorylation enrichment: 0.869 for the first, 0.468 for the second.

Compared with IPGMEYLVSII [TNC_Y1775_V1773M], RAYSWYQHQRA [NDST1_Y714] is lower in phosphorylation enrichment: 1.11 for the first, 1.06 for the second.

Compared with NYCPGYNNFYN [USH2A_Y467_R464C], IVLRSYPASGH [NID2_Y449] is lower in phosphorylation enrichment: 1.12 for the first, 0.682 for the second.

Compared with RALCHYYKLNI [ETV6_Y401_R399C], FAFQLYDLDRD [CHP2_Y123_YF] is lower in phosphorylation enrichment: 6.35 for the first, 1.13 for the second.

Compared with MPPHIYAITDT [MYH9_Y151], LENSTYQYIRV [CRB1_Y760] is higher in phosphorylation enrichment: 0.68 for the first, 1.11 for the second.

Going from ADFFDYGRGLS [KHDRBS3_Y304_H306R_YF] to RRMLQYLTVND [PPFIBP2_Y663], the phosphorylation enrichment rises from 0.798 to 0.882.

Compared with DDFNLYINVKL [MTHFD1_Y52_S49F], NVADHYGVYKP [ATP6V0D2_Y271] is lower in phosphorylation enrichment: 1.67 for the first, 0.517 for the second.

Compared with KWHREYNFKYV [RICTOR_Y835_S837F], SQETYYRVSNM [ABCD1_Y181_Q178E] is higher in phosphorylation enrichment: 0.693 for the first, 3.85 for the second.

Work on GEVKAYGAGLL [TH_Y419] yielded a phosphorylation enrichment of 0.498.

molecular target: MERTK (UniProt Q12866); experiment: as above
Sequence (Q12866 whole entry, looked up): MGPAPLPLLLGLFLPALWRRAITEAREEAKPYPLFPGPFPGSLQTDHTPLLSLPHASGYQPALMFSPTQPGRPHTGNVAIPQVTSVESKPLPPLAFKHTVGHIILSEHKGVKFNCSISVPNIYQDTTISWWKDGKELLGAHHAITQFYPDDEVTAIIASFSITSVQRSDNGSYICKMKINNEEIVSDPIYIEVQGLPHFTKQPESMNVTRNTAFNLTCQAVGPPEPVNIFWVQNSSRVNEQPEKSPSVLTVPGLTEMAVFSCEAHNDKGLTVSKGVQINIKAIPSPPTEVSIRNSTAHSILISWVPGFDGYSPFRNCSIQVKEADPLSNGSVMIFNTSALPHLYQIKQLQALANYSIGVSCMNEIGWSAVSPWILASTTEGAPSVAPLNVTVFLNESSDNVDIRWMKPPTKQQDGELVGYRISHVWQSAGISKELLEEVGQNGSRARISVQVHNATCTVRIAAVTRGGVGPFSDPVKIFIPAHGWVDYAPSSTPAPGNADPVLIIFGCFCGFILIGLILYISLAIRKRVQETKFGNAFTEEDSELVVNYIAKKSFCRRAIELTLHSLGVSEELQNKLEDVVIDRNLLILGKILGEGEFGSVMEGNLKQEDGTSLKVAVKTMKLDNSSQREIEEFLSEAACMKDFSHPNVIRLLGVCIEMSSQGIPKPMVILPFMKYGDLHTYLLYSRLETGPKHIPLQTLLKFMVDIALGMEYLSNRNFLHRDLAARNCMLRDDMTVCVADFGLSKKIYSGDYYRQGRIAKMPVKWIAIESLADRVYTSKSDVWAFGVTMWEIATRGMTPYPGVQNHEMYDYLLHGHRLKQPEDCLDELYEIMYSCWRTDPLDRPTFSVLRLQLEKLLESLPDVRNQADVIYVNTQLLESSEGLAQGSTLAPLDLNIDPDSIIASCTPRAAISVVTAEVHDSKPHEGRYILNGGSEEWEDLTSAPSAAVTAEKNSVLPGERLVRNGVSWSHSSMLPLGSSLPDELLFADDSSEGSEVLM

Going from KVGNEYITKGQ [MYH7_Y410_V411I] to GFQPDYGQPAG [SYP_Y278_YF], the phosphorylation enrichment rises from 0.356 to 0.404.

Compared with NYYDTYIKTCL [IQGAP2_Y1445], GFSDPYVKASL [SYT3_Y470] is lower in phosphorylation enrichment: 3.49 for the first, 0.391 for the second.

Going from KLGDVYVNVAF [PGK1_Y161_D164V] to HQNGMYGLHQD [SGSH_Y89], the phosphorylation enrichment rises from 0.471 to 0.678.

First: TSSGGYRRTPS [ABI1_Y333]
Second: EIVYVYVKKRS [DNAI2_Y7]
The phosphorylation enrichment of the first is higher: 0.467 for the first, 0.377 for the second.

Going from GMSQAYSSSQR [DES_Y5] to EMFNPYYGLFE [NEDD4L_Y679], the phosphorylation enrichment rises from 0.337 to 6.86.

Going from RRLEPYGENFN [APOA4_Y310_V307L] to IVRSLYEDVED [VHL_Y185_L188V], the phosphorylation enrichment rises from 0.385 to 0.458.

First: DLRGIYQKLVI
Second: GEKKAYVRLAP [RPL23A_Y137]
The phosphorylation enrichment of the first is higher: 4.99 for the first, 0.373 for the second.

First: IPGMEYLVSII [TNC_Y1775_V1773M]
Second: RAYSWYQHQRA [NDST1_Y714]
The phosphorylation enrichment of the first is lower: 0.565 for the first, 0.619 for the second.

First: NYCPGYNNFYN [USH2A_Y467_R464C]
Second: IVLRSYPASGH [NID2_Y449]
The phosphorylation enrichment of the first is higher: 0.566 for the first, 0.493 for the second.

First: RALCHYYKLNI [ETV6_Y401_R399C]
Second: FAFQLYDLDRD [CHP2_Y123_YF]
The phosphorylation enrichment of the first is higher: 3.95 for the first, 0.694 for the second.

First: MPPHIYAITDT [MYH9_Y151]
Second: LENSTYQYIRV [CRB1_Y760]
The phosphorylation enrichment of the first is lower: 4.75 for the first, 7.03 for the second.

First: ADFFDYGRGLS [KHDRBS3_Y304_H306R_YF]
Second: RRMLQYLTVND [PPFIBP2_Y663]
The phosphorylation enrichment of the first is lower: 0.369 for the first, 0.475 for the second.

Going from DDFNLYINVKL [MTHFD1_Y52_S49F] to NVADHYGVYKP [ATP6V0D2_Y271], the phosphorylation enrichment falls from 0.483 to 0.356.

First: KWHREYNFKYV [RICTOR_Y835_S837F]
Second: SQETYYRVSNM [ABCD1_Y181_Q178E]
The phosphorylation enrichment of the first is lower: 0.376 for the first, 3.7 for the second.

In the case of GEVKAYGAGLL [TH_Y419], the phosphorylation enrichment is reported as 0.342.

system: c-Abl (mouse); experiment: as above

First: KVGNEYITKGQ [MYH7_Y410_V411I]
Second: GFQPDYGQPAG [SYP_Y278_YF]
The phosphorylation enrichment of the first is higher: 0.564 for the first, 0.509 for the second.

Compared with NYYDTYIKTCL [IQGAP2_Y1445], GFSDPYVKASL [SYT3_Y470] is lower in phosphorylation enrichment: 0.928 for the first, 0.544 for the second.

First: KLGDVYVNVAF [PGK1_Y161_D164V]
Second: HQNGMYGLHQD [SGSH_Y89]
The phosphorylation enrichment of the first is higher: 0.727 for the first, 0.726 for the second.

Compared with TSSGGYRRTPS [ABI1_Y333], EIVYVYVKKRS [DNAI2_Y7] is higher in phosphorylation enrichment: 0.486 for the first, 0.64 for the second.

Going from GMSQAYSSSQR [DES_Y5] to EMFNPYYGLFE [NEDD4L_Y679], the phosphorylation enrichment rises from 0.475 to 2.2.

Going from RRLEPYGENFN [APOA4_Y310_V307L] to IVRSLYEDVED [VHL_Y185_L188V], the phosphorylation enrichment rises from 0.371 to 0.834.

Compared with DLRGIYQKLVI, GEKKAYVRLAP [RPL23A_Y137] is lower in phosphorylation enrichment: 1.76 for the first, 0.628 for the second.

First: IPGMEYLVSII [TNC_Y1775_V1773M]
Second: RAYSWYQHQRA [NDST1_Y714]
The phosphorylation enrichment of the first is lower: 0.825 for the first, 0.964 for the second.

Going from NYCPGYNNFYN [USH2A_Y467_R464C] to IVLRSYPASGH [NID2_Y449], the phosphorylation enrichment falls from 0.761 to 0.511.

Going from RALCHYYKLNI [ETV6_Y401_R399C] to FAFQLYDLDRD [CHP2_Y123_YF], the phosphorylation enrichment falls from 2.78 to 0.823.

Compared with MPPHIYAITDT [MYH9_Y151], LENSTYQYIRV [CRB1_Y760] is lower in phosphorylation enrichment: 0.922 for the first, 0.91 for the second.

First: ADFFDYGRGLS [KHDRBS3_Y304_H306R_YF]
Second: RRMLQYLTVND [PPFIBP2_Y663]
The phosphorylation enrichment of the first is lower: 0.59 for the first, 0.691 for the second.

First: DDFNLYINVKL [MTHFD1_Y52_S49F]
Second: NVADHYGVYKP [ATP6V0D2_Y271]
The phosphorylation enrichment of the first is higher: 0.984 for the first, 0.587 for the second.

First: KWHREYNFKYV [RICTOR_Y835_S837F]
Second: SQETYYRVSNM [ABCD1_Y181_Q178E]
The phosphorylation enrichment of the first is lower: 0.528 for the first, 1.33 for the second.

GEVKAYGAGLL [TH_Y419] showed a phosphorylation enrichment of 0.451.
